From the Human Domainome abundance scans (Beltran et al. 2025)
± gives the uncertainty stated by the source.

B1: F-BAR and double SH3 domains protein 1, residues 467 to 528; numbered along this chain, Q86WN1 (parent)
chain: RALPCPAHVVFRYQAGREDELTITEGEWLEVIEEGDADEWVKARNQHGEVGFVPERYLNFPD

Variants of: B1
Experiment: abundance fitness (aPCA) (normalised: wild type 0, dead -1); higher = more abundant; growth selection in yeast, the domain comes from the species named
Conditions: Homo sapiens

Row | Variant | abundance fitness
1 | R12T | 0.023 ± 0.097
2 | E20I | -0.746 ± 0.18
3 | E20M | -0.475 ± 0.083
4 | E20R | -0.35 ± 0.053
5 | R56Q | 0.012 ± 0.053
6 | V41D | -0.815 ± 0.25
7 | R56P | -0.129 ± 0.062
8 | L29S | -0.491 ± 0.096
9 | G26Q | -0.34 ± 0.13
10 | G51E | -0.863 ± 0.18
11 | N45L | -0.737 ± 0.086
12 | N59I | -0.079 ± 0.075
13 | T24K | 0.042 ± 0.077
14 | F52G | -0.491 ± 0.055
15 | Q14I | -0.261 ± 0.082
16 | E49F | -0.088 ± 0.09
17 | A7D | -0.976 ± 0.34
18 | A43C | -0.038 ± 0.12
19 | Q46S | -0.04 ± 0.061
20 | W40M | 0.037 ± 0.073
21 | A37W | -0.044 ± 0.064
22 | V41K | -0.411 ± 0.13
23 | E20V | -0.626 ± 0.097
24 | G51W | -0.954 ± 0.13

Row | Variant | abundance fitness
25 | R44Q | -0.23 ± 0.073
26 | L3K | -0.276 ± 0.1
27 | D38W | -0.154 ± 0.071
28 | V50M | -0.108 ± 0.07
29 | R44K | 0.003 ± 0.09
30 | G26P | -0.776 ± 0.1
31 | E30T | -0.055 ± 0.065
32 | H47C | -0.045 ± 0.13
33 | G48E | -0.169 ± 0.073
34 | E33V | -0.587 ± 0.086
35 | W40T | -0.101 ± 0.06
36 | P6A | -0.094 ± 0.062
37 | R17N | 0.099 ± 0.13
38 | N45G | -0.576 ± 0.098
39 | E39T | 0.02 ± 0.055
40 | K42A | -0.511 ± 0.086
41 | A37T | 0.014 ± 0.071
42 | N45E | -1.08 ± 0.37
43 | P4L | -0.567 ± 0.076
44 | R1M | -0.548 ± 0.24
45 | G16K | 0.077 ± 0.074
46 | I32M | -0.162 ± 0.055
47 | G51T | -0.698 ± 0.091
48 | L58G | -0.73 ± 0.063

Row | Variant | abundance fitness
49 | F11L | -0.061 ± 0.037
50 | C5P | -0.857 ± 0.15
51 | T22M | -0.652 ± 0.088
52 | V53P | -0.922 ± 0.18
53 | R17F | -0.214 ± 0.083
54 | I23W | -0.572 ± 0.1
55 | D62T | 0.028 ± 0.079
56 | A37M | 0.018 ± 0.056
57 | F11H | 0.043 ± 0.095
58 | R17T | -0.164 ± 0.079
59 | E20C | -0.103 ± 0.079
60 | L29A | -0.7 ± 0.12
61 | N59H | 0.003 ± 0.086
62 | Y13A | -0.504 ± 0.079
63 | N45V | -0.949 ± 0.16
64 | H47M | -0.039 ± 0.052
65 | Q46W | -0.228 ± 0.093
66 | D36Y | -0.171 ± 0.12
67 | E18A | -0.228 ± 0.073
68 | E34T | -0.048 ± 0.067
69 | G26L | -0.741 ± 0.092
70 | T24Y | -0.153 ± 0.096
71 | R12N | 0.033 ± 0.078
72 | L21Y | -1 ± 0.23

Row | Variant | abundance fitness
73 | F52I | -0.152 ± 0.12
74 | L29V | 0.102 ± 0.054
75 | Q46A | 0.036 ± 0.057
76 | G26H | -0.389 ± 0.16
77 | E27F | -0.795 ± 0.15
78 | V50K | -0.187 ± 0.075
79 | A2Q | 0.007 ± 0.097
80 | K42S | -0.325 ± 0.058
81 | L21G | -0.87 ± 0.13
82 | E25Y | 0.189 ± 0.26
83 | A37Q | 0.071 ± 0.068
84 | Y13T | -0.629 ± 0.13
85 | W40K | -0.051 ± 0.075
86 | N59G | -0.096 ± 0.054
87 | I23T | -0.227 ± 0.076
88 | R1H | -0.2 ± 0.16
89 | F60A | -0.535 ± 0.086
90 | K42T | -0.076 ± 0.069
91 | E49L | -0.13 ± 0.047
92 | D19W | -0.426 ± 0.084
93 | R12C | -0.056 ± 0.077
94 | Q46P | -0.334 ± 0.074
95 | V31D | -0.992 ± 0.32
96 | N45K | -0.447 ± 0.1

Row | Variant | abundance fitness
97 | G26N | -0.195 ± 0.15
98 | G51F | -0.669 ± 0.12
99 | D62A | 0.012 ± 0.075
100 | L58R | -0.859 ± 0.061
101 | D36F | 0.005 ± 0.069
102 | P4W | -0.664 ± 0.11
103 | I23A | -0.705 ± 0.085
104 | A37K | 0.14 ± 0.06
105 | Q46I | -0.142 ± 0.1
106 | D19M | -0.12 ± 0.061
107 | D62N | -0.201 ± 0.074
108 | G35H | -0.409 ± 0.2
109 | V9S | -0.752 ± 0.09
110 | E33F | -0.725 ± 0.12
111 | Y13Q | -0.406 ± 0.12
112 | E18K | -0.238 ± 0.086
113 | V10W | -0.236 ± 0.08
114 | P61E | -0.111 ± 0.1
115 | E33H | -0.193 ± 0.077
116 | G48S | -0.132 ± 0.064
117 | E49I | 0.1 ± 0.095
118 | I32P | -0.726 ± 0.11
119 | T22S | 0.069 ± 0.051
120 | E39R | 0.017 ± 0.051

Row | Variant | abundance fitness
121 | G51V | -0.857 ± 0.096
122 | R12Q | -0.078 ± 0.075
123 | E18C | -0.076 ± 0.086
124 | P6L | -0.321 ± 0.048
125 | D19A | 0.092 ± 0.061
126 | E27T | -0.482 ± 0.09
127 | V53F | -0.823 ± 0.17
128 | T22D | -0.117 ± 0.097
129 | W40V | -0.111 ± 0.067
130 | P4A | -0.496 ± 0.11
131 | L29H | -0.6 ± 0.33
132 | L21R | -0.99 ± 0.13
133 | L58E | -0.951 ± 0.18
134 | N45Y | -0.377 ± 0.18
135 | H47K | 0.048 ± 0.07
136 | E34F | 0.127 ± 0.095
137 | D38G | 0.023 ± 0.055
138 | W40L | -0.134 ± 0.048
139 | C5R | -0.431 ± 0.062
140 | D62C | 0.111 ± 0.14
141 | R44I | -0.036 ± 0.09
142 | V10G | -0.179 ± 0.049
143 | E25G | -0.281 ± 0.1
144 | A43R | -0.842 ± 0.15

Row | Variant | abundance fitness
145 | W40R | 0.121 ± 0.042
146 | A2K | 0.169 ± 0.069
147 | G16C | 0.035 ± 0.087
148 | R17M | -0.091 ± 0.074
149 | P54S | -0.126 ± 0.059
150 | E34C | 0.008 ± 0.072
151 | H47D | -0.006 ± 0.081
152 | P54M | -0.009 ± 0.053
153 | F11E | 0.109 ± 0.091
154 | Q14D | 0.014 ± 0.086
155 | E55Q | -0.138 ± 0.069
156 | Q14W | -0.481 ± 0.11
157 | P6M | -0.357 ± 0.12
158 | G51Q | -1.03 ± 0.24
159 | R12S | 0.133 ± 0.048
160 | V41C | -0.013 ± 0.069
161 | L3P | -0.242 ± 0.093
162 | C5H | -0.145 ± 0.42
163 | A2M | 0.104 ± 0.085
164 | H47L | 0.01 ± 0.041
165 | E18G | -0.072 ± 0.047
166 | V50P | -0.833 ± 0.14
167 | V10I | -0.021 ± 0.064
